Experimental data from US20050008653.

Experiments:
[1] = molecular target: p53 core domain I195T I195T (UniProt P04637); test: FP
[2] = molecular target: p53 core domain wild-type (UniProt P04637); test: FP; conditions: wild-type value quoted for comparison; CDB3 did not affect wild-type DNA binding

Gadd45 30-mer DNA
Kd ([1]; after 1 h at 10 C with 100 uM CDB3 peptide): 1 µM | Kd ([1]; no peptide, 10 C incubation, 1:1 binding fit): 6 µM | Kd [2]: 800 nM
